US10526416B2, “Anti-HER3 antibodies and uses of same” (Yeda Research and Development Co. Ltd., priority 2014, dated 2020)

System: BxPC3 xenografts
Test: BxPC3 cell xenografts in CD1-Nude mice
Type: in vivo
Settings: 0.2 mg/injection IP every 3 days for 5 weeks, 7 to 8 mice per group
Experimental: FIGS. 15A-F show the effects of a mixture of two anti HER3 mAbs, in vivo on BxPC3 cell xenografts and in vitro. (FIGS. 15A-C) CD1-Nude mice were grafted subcutaneously with 5×10^6 BxPC3 cells. Once tumors became palpable (after 13 days), the mice were randomized into group of 8 mice and treated every 3 days for 5 weeks. The control group (CTRL) was injected intra-peritoneally (IP) with 200 μl PBS. The other groups were treated with mAb alone or in combination at a final concentration of 0.2 mg/0.2 ml of PBS per mouse. The mice were weighted once a week and the tumors measured twice a week. An average tumor size of 7-8 mice (+/−SEM) is shown. (FIGS. 15D-F) Proliferation assays using MTT were performed on BxPC-3. 5,000 cells per well were plated the day before and treated for 72 h with the indicated mAb treatment. Decreasing concentrations of the indicated mAb (alone or in combination) were used in medium supplemented with 1% serum and NRG (10 ng/ml).
All animal studies were approved by the Weizmann Institute's Review Board (IRB). Tumor bearing CD1/nude mice were randomized in groups of five-ten mice and injected subcutaneously in the right flank with cancer cells (3-5×10^6 per mouse depending on the cell line). mAbs were injected intraperitoneally at a total dose of 200 μg per mouse per injection, twice a week, for 5 weeks or until tumors reached the size of 1,500 mm^3. In experiments evaluating the effect of the TKI AZD-9291, Vehicle (Vehicle formulation: HPMC 0.5% (sigma Cat#56340), Tween80 0.1% (Sigma Cat #P8074 in water), Erlotinib at a dose of 50 mg/kg per injection, or AZD9291 at a dose of 1 or 5 mg/kg per injection were injected daily intraperitoneally. In one experiment (FIG. 16), mice were treated daily with Erlotinib at a dose of 50 mg/kg per injection until tumors reached a size of 800 mm^3 and only then were treated as indicated. Tumor volume and body weight were evaluated twice and once per week, respectively. Mice were euthanized when tumor size reached 1,500 mm^3. […] Survival of the tumor bearing mice was recorded and depicted by Kaplan-Meier analysis. […]

Molecule	effect on BxPC3 xenograft tumor growth
NG83: anti-HER3 mAb; light chain CDRs SEQ ID NOs: 7-9, heavy chain CDRs 10-12 (antibody, V domains shown, VH chain of NG83 polypeptide; VL chain of NG83 polypeptide) VH: QIQLVQSGPELKKRGETVKISCKASGYTFTNYGMNWVRQAPGKGLKCMGWINTYAGEPTYADDFKGRFAFSLDSSASTAYLQINNLKNEDMATYFCARGGITGAMDYWGQGTSVTVSS VL: DVVMTQKTSSLSTSLGDRVTISCRASQDIRNYLNWYQQKPDGTVKLLIYYTSRLHSGVPSRFSGSGSGTDYSLTISDLEQEDIATYFCQQGNTLPWTFGGGTKLAIK	no statistically significant ability to decrease tumor growth
XC252: anti-HER3 mAb generated as described in Chen X, et al. (1996); heavy and light chain SEQ ID NOs: 49 and 53 (antibody, V domains shown, VH chain of XC252 polypeptide; VL chain of XC252 polypeptide) VH: EVQLQQSGAELVRPGVSVKISCKGSGYTFTDYAMHWVKQSHAKSLEWIGVISTYYGDPRDNQKFKGKATMTVDKSSSTAYMELARLTSEDSAIYYCARGDYDWYAIDYWGQGTSVTVSS VL: DVVMTQTPLSLPVSLGDQASISCRSSQSIVHSDGNTYLEWYLQKPGQSPKLLIYKVSNRFSGVPDRFSGSGSGTDFTLKISRVEAEDLGVYYCFQGSHVPPTFGGGTKLEIK	no statistically significant ability to decrease tumor growth
